Tested on: glycerol kinase (glpK)
Experiment: Biochemical measurements of mutant glycerol kinase (partially purified protein): reaction rate and inhibition by FBP
Design: species or system Escherichia coli
Conditions: partially purified protein from cells expressing the enzyme
Description: All clones had mutations in the gene for glycerol kinase (glpK), which catalyzes the first step in glycerol catabolism. This protein is subject to inhibition by fructose-1,6-bisphosphate (FBP) and phosphorylated enzyme IIA^Glc. […] Since all glycerol-adapted populations have mutations in glpK, rapid growth on glycerol can be partially attributed to altered kinetic and regulatory properties of glycerol kinase. Evidently the rate of glycerol phosphorylation catalyzed by GlpK is rate-limiting to the growth of WT E. coli MG 1655. The glycerol catabolic pathway generates the glycolytic intermediate dihydroxyacetone phosphate, which can be converted to methylglyoxal, a toxic metabolite when present at high concentrations. It is noteworthy that no mutations were detected in any genes relating to methylglyoxal metabolism.

B1: WT: wild-type E. coli MG1655 glycerol kinase (GlpK) (protein, UniProt P0A6F3 2-502, looked up)
Glycerol kinase: TEKKYIVALDQGTTSSRAVVMDHDANIISVSQREFEQIYPKPGWVEHDPMEIWATQSSTLVEVLAKADISSDQIAAIGITNQRETTIVWEKETGKPIYNAIVWQCRRTAEICEHLKRDGLEDYIRSNTGLVIDPYFSGTKVKWILDHVEGSRERARRGELLFGTVDTWLIWKMTQGRVHVTDYTNASRTMLFNIHTLDWDDKMLEVLDIPREMLPEVRRSSEVYGQTNIGGKGGTRIPISGIAGDQQAALFGQLCVKEGMAKNTYGTGCFMLMNTGEKAVKSENGLLTTIACGPTGEVNYALEGAVFMAGASIQWLRDEMKLINDAYDSEYFATKVQNTNGVYVVPAFTGLGAPYWDPYARGAIFGLTRGVNANHIIRATLESIAYQTRDVLEAMQADSGIRLHALRVDGGAVANNFLMQFQSDILGTRVERPEVREVTALGAAYLAGLAVGFWQNLDELQEKAVIEREFRPGIETTERNYRYAGWKKAVKRAMAWEEHDE
B1 was tested, and the Vmax was 15.8 μmol glycerol/min/mg.
